Data taken from the DeepSol protein solubility set.

assay: soluble on expression in E. coli; label from the status in PepcDB or PDB records

Row | Sequence | soluble on expression in E. coli
1 | MSLAEFIYTMKKVRKAHGDKVILDDVTLSFYPGAKIGVVGPNGAGKSSVLRIMAGLDKPNNGDAFLATGATVGILQQEPPLNEDKTVRGNVEEGMGDIKIKLDRFNEVAELMATDYTDELMEEMGRLQEELDHADAWDLDAQLEQAMDALRCPPADEPVTNLSGGERRRVALCKLLLSKPDLLLLDEPTNHLDAESVQWLEQHLASYPGAILAVTHDRYFLDNVAEWILELDRGRAYPYEGNYSTYLEKKAERLAVQGRKDAKLQKRLTEELAWVRSGAKARQAKSKARLQRYEEMAAEAEKTRKLDFEEIQIPVGPRLGNVVVEVDHLDKGYDGRALIKDLSFSLPRNGIVGVIGPNGVGKTTLFKTIVGLETPDSGSVKVGETVKLSYVDQARAGIDPRKTVWEVVSDGLDYIQVGQTEVPSRAYVSAFGFKGPDQQKPAGVLSGGERNRLNLALTLKQGGNLILLDEPTNDLDVETLGSLENALLNFPGCAVVISHDRWFLDRTCTHILAWEGDDDNEGHHHHHH | not soluble
2 | MSLAEGYQSEADLERELIDDLRRQGYEFLPAIKTPEAMLANVRVQLQALNDVQFSDGEWARFVETWLDKPSDGIVEKTRKIHDDYIHDFVFDDGRIQNIHLVDKKTLVRNKVQVIRQFVTTPALCATPPREGNFSGGEQLWDQFPSFGGVPVGRGGYNRYDVTILVNGLPLVQVELKRRGVAIREAFNQVHRYSKESFNSAHSLFKYLQLFVISNGTDTRYFANTTRRDKNSFDFTMHWAKADNTPIRDLKDFAATFFQKHTLLSVLLHYSVFDVSNTLLVMRPYQIAATERILWKIKSSHQAKTWSTPEGGGYIWHTTGSGKTLTSFKAARLGTELDFIDKVFFVVDRKDLDYQTMKEYQRFSPDSVNGSDSTAGLKRNLEKDDNRIIVTTIQKLNNLMKSEPDLPIYHKQVVFIFDECHRSQFGEAQKNLRKKFKRYLQFGFTGTPIFPENALGAETTASVFGRELHSYVITDAIRDEKVLKFKVDYNDVRPRFKAIETERDEKKLSAAENRQALLHPERIREITQYILTHYRQKTHRLQPGAKGFNALFAVSSVEAAKLYYEAFKTQQKDSAKPLKVATIFSYAANEAQDAVGDIADEGFEVSALNSSAKEFLNAAIADYNALFKTNFSVDSQGFQNYYRDLAKRVKGTDDSGKRLPADEQVDLLIVVGMFLTGFDAPTLNTLFVDKNLRYHGLLQAYSRTNRIFDATKTFGNIVTFRDLEQATIDAITLFGDKNTRNVVLEKSYREYMEGYTDALTGQARRGFVEVVQELQARFPDPAALEKEADKKAFVRLFGEYLRAENVLQNFDEFAALKALQSVNTGDPAAVEAFKAQHYLSDEDLAALQAIKLPPERTMQDYRSTYNDIRDWLRREQAGVEKEKSTIDWDDVVFEVDLLKSQEINLDYILELIFERNKETRSKAELVEEVRRVIRASLGHRAKESLVVDFINQTDLEQLAEGHHHHHH | soluble
3 | MSLAESPLEIHVIADSTGETAVRLARAARSQFEGVHWHIVRHPMIGTVPEMVSALEAVSEAHEAGQWVCVVHTLVLPDMRRMVSDACEEMGIRELDLMGPMLEAMEEASGLDADAVPRRPVGVEADYFTRISAMEFAVRNDDGAIPDRLTEADICLVGVSRSGKTPLSIYLGYLGYKTVNVPLVPGIAPPTELAAVDRWRIVGLTIDAQRLLEIRGRRVRGLGGFGNEDGYADLAAIYEELDEVGKIQRRLGCPIIDTTGLALEESATKVIDVVDQRAKTAGTRLRKPAGSYRMRPEGHHHHHH | soluble
4 | MSLAETWDMPLAYSGSNFHSVTAAEFGNCVTTGTGGEIEIVTHPSGSLFKGADIKRAVQTGQAPIGERLLSGHQNENALFGFDSVPFLATSFDDADKLWKAAKEPLSALLAEQNLTLLYSVPWPPQGLYFKNEVNAVADMKGIKFRSYNNATSRLAELTGMLPVTIEAAEISQAFATGVADSMISSGSTGYDRKVWESLNYFYEVDAWLPRNYVFVNSDVWSGVSDQNKNVIQACAGLAEYAGNWRSKEYTGFTLQGLRDGGMTVGPASDQLVGELKEIGVTMTSEWLEAAGDQGKAIVDAFKAEGHHHHHH | not soluble
5 | MSLAEYKHILVGVDGSRQAKRALDKAIAVALRNQAELIIVTIMSGGDYVGLGNNTQVGFGYVDQQVMDESRQALEALVDQYRQKAQEAGVERVVTSVFYGHAKVDLAKSLPKEYQADLIMLGATGVNVVERMLLGSTASYVVANAVCDVLVVRTDLHNEGHHHHHH | soluble
6 | MSLAIKLIAIDMDGTLLLPDHTISPAVKNAIAAARARGVNVVLTTGRPYAGVHNYLKELHMEQPGDYCITYNGALVQKAADGSTVAQTALSYDDYRFLEKLSREVGSHFHALDRTTLYTANRDISYYTVHESFVATIPLVFCEAEKMDPNTQFLKVMMIDEPAILDQAIARIPQEVKEKYTVLKSAPYFLEILDKRVNKGTGVKSLADVLGIKPEEIMAIGDQENDIAMIEYAGVGVAVDNAIPSVKEVANFVTKSNLEDGVAFAIEKYVLNEGGSHHHHHH | soluble
7 | MSLAKDKDTLDFIRNLCQKRHVCIQSSLAKVSSKKVNEKDVDKFLLYQHFSCNIRNIHHHQILAINRGENLKVLTVKVNISDGVKDEFCRWCIQNRWRPRSFARPELMKILYNSLNDSFKRLIYPLLCREFRAKLTSDAEKESVMMFGRNLRQLLLTSPVPGRTLMGVDPGYKHGCKLAIISPTSQILHTDVVYLHCGQGFREAEKIKTLLLNFNCSTVVIGNGTACRETEAYFADLIMKNYFAPLDVVYCIVSEAGASIYSVSPEANKEMPGLDPNLRSAVSIARRVQDPLAELVKIEPKHIGVGMYQHDVSQTLLKATLDSVVEECVSFVGVDINICSEVLLRHIAGLNANRAKNIIEWREKNGPFINREQLKKVKGLGPKSFQQCAGFIRINQDYIRTFCSQQTETSGQIQGVAVTSSADVEVTNEKQGKKKSKTAVNVLLKPNPLDQTCIHPESYDIAMRFLSSIGGTLYEVGKPEMQQKINSFLEKEGMEKIAERLQTTVHTLQVIIDGLSQPESFDFRTDFDKPDFKRSIVCLEDLQIGTVLTGKVENATLFGIFVDIGVGKSGLIPIRNVTEAKLSKTKKRRSLGLGPGERVEVQVLNIDIPRSRITLDLIRVLEGHHHHHH | soluble
8 | MSLAKPKVIVPMVTPLRGGSVDKNAASWLASRLSESGVDGVFVPGTTGEWYLLDPHERAEAFFAVASSAIAGLRLVAGVSGYRPEESYRLAEEAAGHGAHAVMAVPPIYFRPSTDFLREFYGEIKRRAGGLPTYIYIFPERMGYTLAVEQVESLVEAGVVDGIKATVTDAAYIAGLAAVKERNPEFEVLAGGLEMLVHTSLSGGDGVVDAYSNVAPKLAVELAESLEKGSVERVAGLQGRVLKLSRILGKRSLPAVLKAVLHVLGAPITGEVRKPLKPLTQPEANATANALCTSYRDYLLPGEGHHHHHH | soluble
9 | MSLAMNNILGLFAHSPLKPLQKHSEKVTECSDLLIPFFQTTFSKNWEQAEEKRLEISQCEREADSLKREIRLKLPRGLFLPIDRTDLLELVTQQDKLANYAKDIAGRMIGRQFGIPEEMQEEFLHYVKRSLDAIHQAHRVIEEMDKLLETGFKGRELKLVNDMIQELDSIEDDTDQMQIKLRKMLYTIESRYNPIDVMFLYKIIEWVGVLADQAQRVGSRIELMLARSEGHHHHHH | soluble
10 | MSLANAFGKEKNIKEFYALKGVSFEISKGECVGIIGHNGAGKSTLLKLLTGVAFPTSGEIEINGRLASMLELGSGFNPELTGMENIYFNGSLNGLTKEEIDGKLKDILEFADIGNFIEQPVKNYSSGMFARLAFAVAINVDPDILIVDEILSVGDVGFQVKCMEKFNEFKKKGKTILYVSHGLGTVKKFCDRAIWLQKGEVVDDGNSVIVVERYYNLNFNPANIEQLKDHKSDIINSIAVKSNTKNVEYLEKLDLEVEYDLISNDLKDPNIVLEFRKTDYEPGTTRGNDQFVCGINSKDNIKNIPFNLGVNKLKVSLNKVNLVAGVYYIDFVLRDGEEEVYRKINGYSFTLNDKYRGEGFLILGHSWGNEGHHHHHH | not soluble
11 | MSLANILAIDDSGLMQAFWVRILSRSQHNVITVSSGDEMRGVLATMNPQLIFLDLSFPGENGFELLQHIRSYQHCLEIPVIAVSGYAGEDTRQACREAGFTDFLAKPFSLAELRGMLARYLDHATEGHHHHHH | not soluble
12 | MSLANRKYFGTDGVRGKVGAYPITPDFALKLGWAAGKVLASQGSKMVLIGKDTRISGYMLESALEAGLAAAGLSAAFTGPMPTPAIAYLTRTFRAEAGIVISASHNPYYDNGIKFFSAKGTKLPDEIEEAIEAMLEQPMDCVESAELGKASRINDAAGRYIEFCKGTFPAHLGLEGYKIVVDCANGATYHIAPNVLRELGAEVIEIGTDPNGLNINEKCGATDVTALQAKVVETKADVGLAYDGDGDRIMMVDHLGNKVDGDQILFIIAREALRSGQLKGGVVGTLMSNMSLEIALKMLGVPFLRANVGDRYVLEKMVENDWTLGGENSGHIIIADKNTTGDGIVASLAVLAAMAQHKLSLNELASAVKLFPQVLINVRFAGGENPLESDAVKSVAAEVEKRLEGKGRILLRKSGTEPLIRVMVECQDAELAQQCAEEIAEAVKKEGHHHHHH | soluble
13 | MSLAPNPYLTGRTLNIAHQGGEALWPSNTLTAYRGAVALGVDLLEMDLHATRDGALVLSHDATLDRLTDTQGRIADLTLEQVLRADAGYTLTPAGGSGFPFRGQGVQVAQLKDVLREFPNTPLIIELKQASPSIAAPFCAELRRAGATGRVIAASFSDAALNEFRRLCPEVMTSMTERELRPLVLLSKVGLSALAPTPGQVAQVPVRSGGIEIVTPAFVRALHARGVAVQVWTIDDEAEMRRLVQMGVDGVITNRPDLLKKVLAEREGHHHHHH | not soluble
14 | MSLAQEIALTPQPAHLTVKDGRFEFGNQLKAKVTPYQGDSIRMVFESFKKELQEATGIKVSSTQKEAKARIILDLNPQLPAEAYKLNVSKKQVRIEASRPAGFYYALQTLKQLMPRNVMAGVATSDHSQWSLPSVEIEDAPRFEWRGFMLDEGRHFFGKDEIKRVIDMMAIYKMNRFHWHLTEDQGWRIEIKKYPKLTETGAWRNSKVLAYGDVKPDGERYGGFYTQKDIKEIVAYAKKKFIEIIPEIDIPGHSQAAVAAYPEFLACDPRDKHEVWLQQGISTDVINVANPKAMQFAKEVIDELTELFPFNYIHLGGDECPTRKWQKNDECKKLLSEIGSSNFRDLQIYFYKQLKDYIATKPADQQRQLIFWNEVLHGNTSILGNDITIMAWIGANAAAKQAAKQGMNTILSPQIPYYINRKQSKLPTEPMSQGHGTETVEAVYNYQPLKDVDAALQPYYKGVQANFWTEWVTEPSVLEYLMLPRLAAVAEAGWTPQEKRNYEDFKERIRKDAELYDLKGWNYGKHIMKEGHHHHHH | soluble
15 | MSLAQGANAPLNIPANPQMFGTNDPNVRRATAIVNGEIITGTDVEQRLALIVSANGGKIDGEEKERLRMQVLRNLIDETLQIQEAKAADVPADDGQVDASYERVATQNFGQSADALEKYLARIGSSAASLKRQIRGEIAWQNLLRRNVQPFVNVSEGEVQEAMQRLQASKGTEEYRIGEIFLAATEENKPQVFANAEKIVEQLKQGGSFVAYARQYSEASTAAVGGDLGWIRLAQLPTELATTAASMGPGQLAGPVEIRGGFSILYLIDKREGHHHHHH | soluble
16 | MSLAQIDSLFVTRLYRAALSEHGPKIDPQEMEASCIAIAEDDEAGQDWCEENGYPGYTSYASLTDLPWRFPIFADLVKSLDAHVAAFAQDLELNLDGRDLKLEDLWINILPEGGTHASHIHPHSVISGTTYVSMPDGASALKLEDPRHAMMMAHPPRTKDCRRELRSFVYEAPNVGDVLLWESFIRHEVPMNMAEDERISVSFNYAWAEGHHHHHH | soluble
17 | MSLAQISKYKRVVLKLSGEALAGEKGFGINPVIIKSVAEQVAEVAKMDCEIAVIVGGGNIWRGKTGSDLGMDRGTADYMGMLATVMNALALQDSLEQLDCDTRVLTSIEMKQVAEPYIRRRAIRHLEKKRVVIFAAGIGNPYFSTDTTAALRAAEVEADVILMGKNNVDGVYSADPKVNKDAVKYEHLTHIQMLQEGLQVMDSTASSFCMDNNIPLTVFSIMEEGNIKRAVMGEKIGTLITKEGHHHHHH | soluble
